Consider one molecule from PMC9575183 (Developmental cell, 2020).

The test addresses T1, Recombinant GST-RILP wt, full length (human, UniProt Q96NA2 1-401).
T1 sequence (looked up): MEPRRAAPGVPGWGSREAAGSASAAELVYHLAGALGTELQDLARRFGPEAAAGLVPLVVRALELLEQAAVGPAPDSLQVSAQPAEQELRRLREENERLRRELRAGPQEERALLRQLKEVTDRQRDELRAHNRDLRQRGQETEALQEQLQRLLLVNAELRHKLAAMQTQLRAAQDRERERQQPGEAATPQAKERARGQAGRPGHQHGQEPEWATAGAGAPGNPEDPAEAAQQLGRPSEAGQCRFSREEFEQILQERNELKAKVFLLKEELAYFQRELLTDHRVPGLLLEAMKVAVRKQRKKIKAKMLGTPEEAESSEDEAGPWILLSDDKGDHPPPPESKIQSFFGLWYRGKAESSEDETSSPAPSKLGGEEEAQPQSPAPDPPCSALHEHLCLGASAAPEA
Briefly: pull-down.

B1: Recombinant human His-tagged ATG5 (natural protein, UniProt Q9H1Y0 1-275, looked up)
chain: MTDDKDVLRDVWFGRIPTCFTLYQDEITEREAEPYYLLLPRVSYLTLVTDKVKKHFQKVMRQEDISEIWFEYEGTPLKWHYPIGLLFDLLASSSALPWNITVHFKSFPEKDLLHCPSKDAIEAHFMSCMKEADALKHKSQVINEMQKKDHKQLWMGLQNDRFDQFWAINRKLMEYPAEENGFRYIPFRIYQTTTERPFIQKLFRPVAADGQLHTLGDLLKEVCPSAIDPEDGEKKNQVMIHGIEPMLETPLQWLSEHLSYPDNFLHISIIPQPTD
Turning to B1, the binding result is reported as “binds”.
